Assay results: article PMC10746543 (2023)

How the values were obtained:
_(Alexa488)DDB1 [1] = target: T1, _(Alexa488)DDB1 (human, UniProt Q16531 1-1140, SpyTag joined to SpyCatcher (S50C) labelled with Alexa488–C5–maleimide); assay: FRET; compound HQ461 titration
_(Alexa488)DDB1 [2] = target: T1, _(Alexa488)DDB1; assay: FRET; compound Z11 titration
_(Alexa488)DDB1 [3] = target: T1, _(Alexa488)DDB1; assay: FRET; compound dCeMM3 titration
_(Alexa488)DDB1 [4] = target: T1, _(Alexa488)DDB1; assay: FRET; compound Z7 titration
_(Alexa488)DDB1 [5] = target: T1, _(Alexa488)DDB1; assay: FRET; compound Z12 titration

T1 sequence (Q16531 whole entry): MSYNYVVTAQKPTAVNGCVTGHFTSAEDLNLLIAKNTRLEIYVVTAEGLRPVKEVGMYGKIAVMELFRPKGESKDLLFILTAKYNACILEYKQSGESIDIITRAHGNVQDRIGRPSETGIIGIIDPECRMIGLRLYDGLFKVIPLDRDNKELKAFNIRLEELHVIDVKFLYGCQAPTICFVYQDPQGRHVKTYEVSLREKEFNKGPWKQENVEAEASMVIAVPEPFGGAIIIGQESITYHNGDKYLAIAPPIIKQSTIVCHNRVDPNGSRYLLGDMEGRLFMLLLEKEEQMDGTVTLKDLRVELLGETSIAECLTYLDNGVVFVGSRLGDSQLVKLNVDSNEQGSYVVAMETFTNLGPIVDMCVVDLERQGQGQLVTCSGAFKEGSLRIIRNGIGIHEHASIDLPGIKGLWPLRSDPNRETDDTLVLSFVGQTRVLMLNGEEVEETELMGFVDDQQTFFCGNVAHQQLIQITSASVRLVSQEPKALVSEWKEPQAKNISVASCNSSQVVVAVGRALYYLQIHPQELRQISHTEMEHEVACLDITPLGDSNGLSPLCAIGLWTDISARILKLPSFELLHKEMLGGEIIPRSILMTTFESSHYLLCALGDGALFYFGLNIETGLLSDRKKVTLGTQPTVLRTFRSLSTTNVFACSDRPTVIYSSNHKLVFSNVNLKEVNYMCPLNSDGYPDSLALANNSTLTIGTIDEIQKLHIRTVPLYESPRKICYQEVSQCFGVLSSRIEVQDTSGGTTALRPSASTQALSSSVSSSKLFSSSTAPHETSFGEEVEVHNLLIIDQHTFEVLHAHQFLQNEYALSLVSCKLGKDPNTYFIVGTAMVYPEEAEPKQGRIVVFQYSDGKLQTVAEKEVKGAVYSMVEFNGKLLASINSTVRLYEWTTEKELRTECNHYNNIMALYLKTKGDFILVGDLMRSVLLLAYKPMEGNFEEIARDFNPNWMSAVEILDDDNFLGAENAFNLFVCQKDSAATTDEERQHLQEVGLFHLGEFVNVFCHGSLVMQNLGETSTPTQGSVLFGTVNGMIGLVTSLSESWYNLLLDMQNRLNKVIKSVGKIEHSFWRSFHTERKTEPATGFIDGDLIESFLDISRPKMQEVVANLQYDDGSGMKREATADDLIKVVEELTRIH

B1: CDK12–cyclin K_(biotin) (complex)
chain 1: not shown
chain 2: MKENKENSSPSVTSANLDHTKPCWYWDKKDLAHTPSQLEGLDPATEARYRREGARFIFDVGTRLGLHYDTLATGIIYFHRFYMFHSFKQFPRYVTGACCLFLAGKVEETPKKCKDIIKTARSLLNDVQFGQFGDDPKEEVMVLERILLQTIKFDLQVEHPYQFLLKYAKQLKGDKNKIQKLVQMAWTFVNDSLCTTLSLQWEPEIIAVAVMYLAGRLCKFEIQEWTSKPMYRRWWEQFVQDVPVDVLEDICHQILDLYSQGKQQMPH
modifications: biotin on the Avi tag (enzymatic, BirA)
Work on B1 yielded an EC50 (_(Alexa488)DDB1 [1]) of 43 nM, an EC50 (_(Alexa488)DDB1 [2]) of 178 nM and an EC50 (_(Alexa488)DDB1 [3]) of 263 nM. It also gave an EC50 (_(Alexa488)DDB1 [4]) of 303 nM and an EC50 (_(Alexa488)DDB1 [5]) of 833 nM.
